The values that follow come from article PMC9425024.

Where “and” joins values, the source holds several entries; their conditions need not be identical. Equal values may be shown once.

For experiment [1], the target named is CTD At ProXp-ala (Arabidopsis thaliana). The experiment can be described thus: SEC-MALS; Superdex 200 Increase 10/300 GL in 50 mM Hepes pH 6.8, 30 mM KCl, 2 mM DTT, 1 mM MgCl2; 100 μl of 3 mg/ml WT, 6 mg/ml ΔCTD or 1.5 mg/ml CTD injected; self-association. A general note: SEC sorts molecules by how far they enter the pores of the column.
Experiment [2] addresses wildtype Arabidopsis thaliana (At) ProXp-ala (Arabidopsis thaliana). The description is as above.

In general, stoichiometry N refers to a count of units in the complex or per binding partner. In the case of CTD At ProXp-ala (domain or fragment), the stoichiometry N in experiment [1] is 2 and 4.

On to “wildtype Arabidopsis thaliana (At) ProXp-ala (enzyme)”, for which, in experiment [2], the stoichiometry N was 2.
